# Results reported in patent publication US7135457B1, “Random peptides that bind to gastro-intestinal tract (GIT) transport receptors and related methods” (Cytogen Corporation, priority 1997, dated 2006).
# Tests used:
# [1] = Drug potency, peptide loading and size of coacervated particles; assay type: physicochemical; conditions: formulation 1 particles (coacervation), blend
# hPEPT1 = target: T1, hPEPT1 (Homo sapiens, UniProt P46059); assay: Receptor ELISA of phage on hPEPT1; assay type: binding; conditions: Table 4; ratio
# T1 construct: 391-571; made in house
# T1 sequence (P46059 391-571): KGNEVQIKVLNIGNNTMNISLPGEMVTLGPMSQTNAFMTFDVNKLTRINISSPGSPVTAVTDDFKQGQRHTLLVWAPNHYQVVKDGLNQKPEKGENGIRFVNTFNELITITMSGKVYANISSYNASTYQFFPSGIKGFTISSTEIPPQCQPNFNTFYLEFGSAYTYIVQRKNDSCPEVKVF
# Procedure: The plates were blocked for one hour with 0.5% BSA-PBS. After clarification, the amplified phage were diluted 1:100 in 1% BSA plus 0.05% Tween 20 in PBS and added to the plates. Following incubation of the plates on a rotator for 1 to 2 hours, the plates were washed 5 times with 1% BSA plus 0.05% Tween 20 in PBS. […] After the plates were washed 5 times, as described above, TMB substrate was added to the wells. The plates were read at 650 nm absorbance.
# [2] = Procedure: In particular, phages selected in vitro to each receptor or binding site located in the GIT were amplified in E. coli, PEG-precipitated, resuspended in TBS and the titer of each phage sample was determined by plaquing in E. coli as described above. […] Using the in situ loop model described above, 0.5 ml of preselected phage library solution was injected into the tied-off portion of the duodenum/jejunum. Blood was collected into heparinized tubes from the portal vein at 0, 15, 30, 45 and 60 minutes. A blood sample was taken from the systemic circulation at the end of the experiment. Similarly, the portion of the duodenum/jejunum used for phage injection was taken at the end of the experiment.
# Thirty microliters of the collected portal blood (neat and 10^−2, 10^−4, 10^−6 dilutions) was added to 30 μl E. coli K91Kan cells (overnight culture) and incubated at 37° C. for 10 min. Subsequently, 3 ml of top agarose was added and the samples were plated for plaques. One hundred microliters of the collected portal blood was added to 100 μl of E. coli K91Kan. Five milliliters of LB medium was then added and the samples were incubated at 37° C. overnight in a rotating microbial incubator. The E. coli was removed by centrifugation and the amplified phage supernatant samples were either titered directly or were PEG-precipitated, resuspended in TBS and titered. Following titration of the amplified phage, samples containing phage from each set of animals were combined, adjusting the titer of each sample to the same titer, and were plated for plaques on LB agar plates (22 cm^2 square plates). Either 12,000 or 24,000 phage were plated for plaques.
# Thirty microliters of the collected systemic blood (neat and 10^−2, 10^−4, 10^−6 dilutions) was added to E. coli K91Kan cells, incubated at 37° C. for 10 min. Three ml of top agarose was then added and the samples were plated for plaques. One hundred microliters of the collected systemic blood was added to 100 μl of E. coli K91Kan, incubated at 37° C. for 10 min. Five milliliters of LB medium was then added and the samples were incubated at 37° C. overnight in a rotating microbial incubator. The E. coli was removed by centrifugation and the amplified phage supernatant samples were either titered directly or were PEG-precipitated, resuspended in TBS and titered. Following titration of the amplified phage, samples containing phage from each set of animals were combined, adjusting the titer of each sample to the same titer, and were plated for plaques on LB agar plates (22 cm^2 square plates). Either 12,000 or 24,000 phage were plated for plaques. The intestinal tissue portion used in each closed loop was excised. […] Alternatively, the tissue (in PBS supplemented with protease inhibitors) was homogenized in an Ultra Thorex homogenizer, washed 3 times in PBS containing protease inhibitors and resuspended in PBS containing protease inhibitors (Int-G samples). In each case, serial dilutions (neat and 10^−2, 10^−4, 10^−6 dilutions) of the tissue homogenate was titered in E. coli.
# The phage amplified from the portal blood, systemic blood and intestinal tissue was plated for plaques. […] The filters were air-dried, and the DNA was cross-linked to the filter (UV crosslinking: 2 min, high setting). The filters were incubated in pre-hybridization buffer (6×SSC, 5×Denhardt's solution, 0.1% SDS, 20 μg/ml yeast tRNA) at 40° C.-45° C. for at least 60 min.
# Synthetic oligonucleotides, (22-mers), complimentary to regions coding for the receptor or binding sites used to create the preselected phage library, were synthesized (see Table 14 below).
# The oligonucleotides (5 pmol) were 5′ end labelled with ^32P-ATP and T4 polynucleotide kinase and approximately 2.5 pmol of labelled oligonucleotide was used in hybridization studies. […] The filters were air-dried and exposed for autoradiography for 15 hours, 24 hours or 72 hours.
# Hybridization data for pools from each receptor group of rats was compiled.
# BSA = BSA (Bos taurus, UniProt P02769); assay: Phage ELISA on BSA (background control protein); assay type: binding; conditions: Table 4
# Chain of BSA (P02769 25-607): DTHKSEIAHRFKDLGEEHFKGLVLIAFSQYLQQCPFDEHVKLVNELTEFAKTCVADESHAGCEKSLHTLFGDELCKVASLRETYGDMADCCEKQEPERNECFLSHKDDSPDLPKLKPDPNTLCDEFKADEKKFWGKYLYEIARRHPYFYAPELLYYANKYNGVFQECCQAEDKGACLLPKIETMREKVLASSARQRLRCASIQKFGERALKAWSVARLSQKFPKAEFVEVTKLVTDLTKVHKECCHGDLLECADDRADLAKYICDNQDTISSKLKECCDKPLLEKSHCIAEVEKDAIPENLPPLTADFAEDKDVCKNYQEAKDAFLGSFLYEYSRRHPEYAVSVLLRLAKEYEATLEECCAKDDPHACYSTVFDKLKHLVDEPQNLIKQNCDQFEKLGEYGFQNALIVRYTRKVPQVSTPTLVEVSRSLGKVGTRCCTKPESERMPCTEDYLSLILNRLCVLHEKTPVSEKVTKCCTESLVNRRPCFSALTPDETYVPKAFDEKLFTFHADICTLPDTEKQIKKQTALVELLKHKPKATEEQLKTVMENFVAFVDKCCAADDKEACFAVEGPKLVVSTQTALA
# Procedure: 96 well plates were coated overnight with GIT receptor, BSA and, optionally, IDE (insulin degrading enzyme, an irrelevant His-fusion protein) or hTF. The plates were blocked for one hour with 0.5% BSA-PBS. After clarification, the amplified phage were diluted 1:100 in 1% BSA plus 0.05% Tween 20 in PBS and added to the plates. Following incubation of the plates on a rotator for 1 to 2 hours, the plates were washed 5 times with 1% BSA plus 0.05% Tween 20 in PBS. Dilute anti-M13-HRP conjugate (anti-M13 antibody linked to horse radish peroxidase (HRP)) was added to all the wells and the plate was incubated for one hour on a rotator. After the plates were washed 5 times, as described above, TMB substrate was added to the wells. The plates were read at 650 nm absorbance.
sequence,measurement,setting,value
RGSTGTAGGERSGVLNLHTRDNASGSGFKPWYPSNRGHK [Peptide 5PAX5],Insulin (insulin potency),[1]; coated with the named peptide,52.7 mg/g
same,Peptide (level of peptide coated onto the particles),[1]; measured by fluorescence,2.83 µL/mg
same,PEPT1/BSA,hPEPT1,4
same,presence in the systemic circulation (in words),[2]; text summary of HPT1 and hPEPT1 pools,found in the systemic circulation
same,transport from the GIT closed loop into the portal circulation (in words),"[2]; text summary of hSI, D2H, HPT1, hPEPT1 pools",not found in the portal blood
same,presence in the intestine samples or fractions (in words),[2]; text summary of the four pools,not found in the intestine samples
same,BSA,BSA,0.036 OD
